Assay results from the Human Domainome abundance scans (Beltran et al. 2025).
± gives the uncertainty stated by the source.

B1: Zinc finger homeobox protein 4, residues 2562 to 2617; numbered along this chain, Q86UP3 (parent)
chain: RLRTTITPEQLEILYEKYLLDSNPTRKMLDHIAREVGLKKRVVQVWFQNTRARERK

Variants of: B1
Assay: abundance fitness (aPCA) (normalised: wild type 0, dead -1); higher = more abundant; growth selection in yeast, the domain comes from the species named
Conditions: Homo sapiens

Variant | abundance fitness
RLRTTITPEQLEILYEKYLLDSNPTRKMLRHIAREVGLKKRVVQVWFQNTRARERK | -0.144 ± 0.078
RLRTTITPEQLEILYEKYLLDSNPTRKMLTHIAREVGLKKRVVQVWFQNTRARERK | 0.002 ± 0.089
RLRTTITPEQLEILYEKYLLDSNPTRKMLIHIAREVGLKKRVVQVWFQNTRARERK | -0.056 ± 0.29
RLRTTITPEQLEILYEKYLLDSNPTRKMLWHIAREVGLKKRVVQVWFQNTRARERK | -0.173 ± 0.087
RLRTTITPEQLEILYEKYLLDSNPTRKMLPHIAREVGLKKRVVQVWFQNTRARERK | -0.579 ± 0.22
RLRTTITPEQLEILYEKYLLDSNPTRKMLMHIAREVGLKKRVVQVWFQNTRARERK | -0.352 ± 0.088
RLRTTITPEQLEILYEKYLLDSNPTRKMLSHIAREVGLKKRVVQVWFQNTRARERK | -0.062 ± 0.077
RLRTTITPEQLEILYEKYLLDSNPTRKMLLHIAREVGLKKRVVQVWFQNTRARERK | -0.296 ± 0.069
RLRTTITPEQLEILYEKYLLDSNPTRKMLVHIAREVGLKKRVVQVWFQNTRARERK | -0.292 ± 0.074
RLRTTITPEQLEILYEKYLLDSNPTRKMLQHIAREVGLKKRVVQVWFQNTRARERK | -0.102 ± 0.092
RLRTTITPEQLEILYEKYLLDSNPTRKMLYHIAREVGLKKRVVQVWFQNTRARERK | 0.003 ± 0.17
RLRTTITPEQLEILYEKYLLDSNPTRKMLDHIARECGLKKRVVQVWFQNTRARERK | -0.223 ± 0.077
RLRTTITPEQLEILYEKYLLDSNPTRKMLDHIAREEGLKKRVVQVWFQNTRARERK | -0.671 ± 0.11
RLRTTITPEQLEILYEKYLLDSNPTRKMLDHIAREDGLKKRVVQVWFQNTRARERK | -0.27 ± 0.13
RLRTTITPEQLEILYEKYLLDSNPTRKMLDHIAREAGLKKRVVQVWFQNTRARERK | -0.103 ± 0.076
RLRTTITPEQLEILYEKYLLDSNPTRKMLDHIARMVGLKKRVVQVWFQNTRARERK | -0.279 ± 0.1
RLRTTITPEQLEILYEKYLLDSNPTRKMLDHIARIVGLKKRVVQVWFQNTRARERK | -0.163 ± 0.094
RLRTTITPEQLEILYEKYLLDSNPTRKMLDHIARNVGLKKRVVQVWFQNTRARERK | -0.358 ± 0.14
RLRTTITPEQLEILYEKYLLDSNPTRKMLDHIARAVGLKKRVVQVWFQNTRARERK | -0.235 ± 0.057
RLRTTITPEQLEILYEKYLLDSNPTRKMLDHIARSVGLKKRVVQVWFQNTRARERK | -0.158 ± 0.059
RLRTTITPEQLEILYEKYLLDSNPTRKMLDHIARHVGLKKRVVQVWFQNTRARERK | -0.302 ± 0.13
RLRTTITPEQLEILYEKYLLDSNPTRKMLDHIARTVGLKKRVVQVWFQNTRARERK | -0.254 ± 0.1
RLRTTITPEQLEILYEKYLLDSNPTRKMLDHIARGVGLKKRVVQVWFQNTRARERK | -0.258 ± 0.066
RLRTTITPEQLEILYEKYLLDSNPTRKMLDHIARLVGLKKRVVQVWFQNTRARERK | -0.25 ± 0.083

Variant | abundance fitness
RLRTTITPEQLEILYEKYLLDSNPTRKMLDHIARFVGLKKRVVQVWFQNTRARERK | -0.564 ± 0.094
RLRTTITPEQLEILYEKYLLDSNPTRKMLDHIARWVGLKKRVVQVWFQNTRARERK | -0.597 ± 0.11
RLRTTITPEQLEILYEKYLLDSNPTRKMLDHIARRVGLKKRVVQVWFQNTRARERK | -0.654 ± 0.066
RLRTTITPEQLEILYEKYLLDSNPTRKMLDHIARQVGLKKRVVQVWFQNTRARERK | -0.283 ± 0.12
RLRTTITPEQLEILYEKYLLDSNPTRKMLDHIARVVGLKKRVVQVWFQNTRARERK | -0.306 ± 0.081
RLRTTITPEQLEILYEKYLLDSNPTRKMLDHIARYVGLKKRVVQVWFQNTRARERK | -0.493 ± 0.18
RLRTTITPEQLEILYEKYLLDSNPTRKMLDHIARCVGLKKRVVQVWFQNTRARERK | -0.393 ± 0.081
RLRTTITPEQLEILYEKYLLDSNPTRKMLDHIARDVGLKKRVVQVWFQNTRARERK | -0.278 ± 0.12
RLRTTITPEQLEILYEKYLLDSNPTRKMLDHIAYEVGLKKRVVQVWFQNTRARERK | 0.245 ± 0.12
RLRTTITPEQLEILYEKYLLDSNPTRKMLDHIAKEVGLKKRVVQVWFQNTRARERK | 0.004 ± 0.08
RLRTTITPEQLEILYEKYLLDSNPTRKMLDHIAPEVGLKKRVVQVWFQNTRARERK | -0.638 ± 0.094
RLRTTITPEQLEILYEKYLLDSNPTRKMLDHIATEVGLKKRVVQVWFQNTRARERK | -0.02 ± 0.1
RLRTTITPEQLEILYEKYLLDSNPTRKMLDHIAEEVGLKKRVVQVWFQNTRARERK | 0.244 ± 0.054
RLRTTITPEQLEILYEKYLLDSNPTRKMLDHIAWEVGLKKRVVQVWFQNTRARERK | -0.139 ± 0.067
RLRTTITPEQLEILYEKYLLDSNPTRKMLDHIAGEVGLKKRVVQVWFQNTRARERK | 0.123 ± 0.051
RLRTTITPEQLEILYEKYLLDSNPTRKMLDHIANEVGLKKRVVQVWFQNTRARERK | 0.161 ± 0.18
RLRTTITPEQLEILYEKYLLDSNPTRKMLDHIAMEVGLKKRVVQVWFQNTRARERK | -0.053 ± 0.063
RLRTTITPEQLEILYEKYLLDSNPTRKMLDHIAIEVGLKKRVVQVWFQNTRARERK | -0.43 ± 0.22
RLRTTITPEQLEILYEKYLLDSNPTRKMLDHIASEVGLKKRVVQVWFQNTRARERK | 0.17 ± 0.084
RLRTTITPEQLEILYEKYLLDSNPTRKMLDHIAFEVGLKKRVVQVWFQNTRARERK | -0.101 ± 0.1
RLRTTITPEQLEILYEKYLLDSNPTRKMLDHIADEVGLKKRVVQVWFQNTRARERK | -0.536 ± 0.25
RLRTTITPEQLEILYEKYLLDSNPTRKMLDHIAAEVGLKKRVVQVWFQNTRARERK | 0.195 ± 0.073
RLRTTITPEQLEILYEKYLLDSNPTRKMLDHIALEVGLKKRVVQVWFQNTRARERK | -0.011 ± 0.059
